Reference: patent publication US20220229068A1, “DETECTION OF PROTEIN TO PROTEIN INTERACTIONS” (THE GOVERNING COUNCIL OF THE UNIVERSITY OF TORONTO, priority 2019, published 2022)
One block for each substance: values may come before it.

Key:
Assay in all cases: SIMPL ELISA, bait-IN/prey-CIC
[1] = target: CXCR2 (prey, CIC format) (human) (UniProt P25025)
[2] = target: T1, MAP2K5 (prey, CIC format) (human) (UniProt Q13163)
T1 sequence (looked up): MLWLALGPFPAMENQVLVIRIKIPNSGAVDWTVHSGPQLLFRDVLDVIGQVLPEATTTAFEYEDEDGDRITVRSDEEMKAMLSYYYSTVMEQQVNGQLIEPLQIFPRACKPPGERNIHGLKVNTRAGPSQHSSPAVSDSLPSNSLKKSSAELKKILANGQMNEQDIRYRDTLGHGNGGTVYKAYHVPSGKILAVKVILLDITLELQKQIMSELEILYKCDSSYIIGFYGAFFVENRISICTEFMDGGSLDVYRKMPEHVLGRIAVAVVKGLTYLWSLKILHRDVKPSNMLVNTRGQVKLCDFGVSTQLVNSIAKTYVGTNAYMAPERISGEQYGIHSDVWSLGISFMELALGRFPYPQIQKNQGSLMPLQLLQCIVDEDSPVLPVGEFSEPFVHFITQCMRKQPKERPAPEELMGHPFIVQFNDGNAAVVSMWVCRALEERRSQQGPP

[3] = target: T2, ORC4 (prey, CIC format) (human) (UniProt O43929)
T2 sequence (looked up): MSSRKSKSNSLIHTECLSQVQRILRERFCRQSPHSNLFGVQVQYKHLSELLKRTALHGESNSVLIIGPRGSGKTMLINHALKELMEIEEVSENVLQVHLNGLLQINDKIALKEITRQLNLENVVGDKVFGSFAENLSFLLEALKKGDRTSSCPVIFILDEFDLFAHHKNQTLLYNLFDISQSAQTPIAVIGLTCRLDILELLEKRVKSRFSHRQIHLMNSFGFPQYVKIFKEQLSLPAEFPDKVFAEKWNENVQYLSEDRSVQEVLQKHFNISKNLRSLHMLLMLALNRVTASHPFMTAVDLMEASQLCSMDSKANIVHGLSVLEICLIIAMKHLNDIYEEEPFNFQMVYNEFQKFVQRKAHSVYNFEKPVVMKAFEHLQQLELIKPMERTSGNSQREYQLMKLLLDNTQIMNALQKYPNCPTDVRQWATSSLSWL

[4] = target: SMAD4 (prey, CIC format) (human) (UniProt Q13485)
Sequence of SMAD4 (prey, CIC format) (human) (Q13485 whole entry): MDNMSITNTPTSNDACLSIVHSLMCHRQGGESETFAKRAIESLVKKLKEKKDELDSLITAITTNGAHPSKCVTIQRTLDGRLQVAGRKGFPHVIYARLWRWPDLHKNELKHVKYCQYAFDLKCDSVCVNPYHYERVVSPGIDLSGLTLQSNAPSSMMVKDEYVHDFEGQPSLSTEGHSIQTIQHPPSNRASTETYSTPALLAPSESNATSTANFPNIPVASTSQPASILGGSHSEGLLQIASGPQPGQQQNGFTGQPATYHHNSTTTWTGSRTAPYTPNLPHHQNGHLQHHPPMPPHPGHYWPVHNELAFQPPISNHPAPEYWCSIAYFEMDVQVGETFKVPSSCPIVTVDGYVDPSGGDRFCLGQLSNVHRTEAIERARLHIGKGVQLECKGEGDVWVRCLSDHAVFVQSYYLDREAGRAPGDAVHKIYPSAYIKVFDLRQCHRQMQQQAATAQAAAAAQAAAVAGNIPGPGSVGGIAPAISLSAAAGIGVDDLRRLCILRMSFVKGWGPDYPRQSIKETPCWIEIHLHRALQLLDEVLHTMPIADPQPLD

[5] = target: CKS1B (prey, CIC format) (human) (UniProt P61024)
Sequence of CKS1B (prey, CIC format) (human) (P61024 whole entry): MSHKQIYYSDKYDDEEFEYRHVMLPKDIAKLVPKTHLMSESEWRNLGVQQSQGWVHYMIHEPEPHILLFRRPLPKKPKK

[6] = target: T3, CASP7 (prey, CIC format) (human) (UniProt P55210)
T3 sequence (looked up): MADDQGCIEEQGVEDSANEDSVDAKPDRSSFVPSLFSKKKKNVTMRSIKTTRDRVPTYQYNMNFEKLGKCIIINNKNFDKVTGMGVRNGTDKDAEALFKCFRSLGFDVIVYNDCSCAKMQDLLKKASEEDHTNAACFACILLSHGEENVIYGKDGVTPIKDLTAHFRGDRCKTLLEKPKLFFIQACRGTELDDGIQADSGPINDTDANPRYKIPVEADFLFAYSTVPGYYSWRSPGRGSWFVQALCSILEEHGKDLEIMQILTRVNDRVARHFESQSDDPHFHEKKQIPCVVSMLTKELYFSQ

[7] = target: RAN (prey, CIC format) (human) (UniProt P62826)
[8] = target: BTRC (prey, CIC format) (human) (UniProt Q9Y297)
Sequence of BTRC (prey, CIC format) (human) (Q9Y297 whole entry): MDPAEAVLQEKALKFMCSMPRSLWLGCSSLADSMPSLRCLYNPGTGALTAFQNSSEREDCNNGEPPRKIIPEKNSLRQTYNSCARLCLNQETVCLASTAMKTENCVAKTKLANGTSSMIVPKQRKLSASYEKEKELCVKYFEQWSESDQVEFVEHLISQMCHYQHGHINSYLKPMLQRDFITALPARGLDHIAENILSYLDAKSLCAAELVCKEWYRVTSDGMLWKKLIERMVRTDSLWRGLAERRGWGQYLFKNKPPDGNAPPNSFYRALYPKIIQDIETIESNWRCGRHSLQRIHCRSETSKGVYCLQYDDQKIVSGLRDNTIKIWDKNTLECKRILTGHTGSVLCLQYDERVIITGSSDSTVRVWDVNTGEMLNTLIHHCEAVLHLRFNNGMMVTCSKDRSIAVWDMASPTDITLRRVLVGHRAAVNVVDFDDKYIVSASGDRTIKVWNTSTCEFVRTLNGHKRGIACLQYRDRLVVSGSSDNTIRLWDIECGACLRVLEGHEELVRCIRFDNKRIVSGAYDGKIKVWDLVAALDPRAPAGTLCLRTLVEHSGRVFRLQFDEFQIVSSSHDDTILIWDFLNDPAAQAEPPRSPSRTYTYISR

[9] = target: SKP2 (prey, CIC format) (human) (UniProt Q13309)
Sequence of SKP2 (prey, CIC format) (human) (Q13309 whole entry): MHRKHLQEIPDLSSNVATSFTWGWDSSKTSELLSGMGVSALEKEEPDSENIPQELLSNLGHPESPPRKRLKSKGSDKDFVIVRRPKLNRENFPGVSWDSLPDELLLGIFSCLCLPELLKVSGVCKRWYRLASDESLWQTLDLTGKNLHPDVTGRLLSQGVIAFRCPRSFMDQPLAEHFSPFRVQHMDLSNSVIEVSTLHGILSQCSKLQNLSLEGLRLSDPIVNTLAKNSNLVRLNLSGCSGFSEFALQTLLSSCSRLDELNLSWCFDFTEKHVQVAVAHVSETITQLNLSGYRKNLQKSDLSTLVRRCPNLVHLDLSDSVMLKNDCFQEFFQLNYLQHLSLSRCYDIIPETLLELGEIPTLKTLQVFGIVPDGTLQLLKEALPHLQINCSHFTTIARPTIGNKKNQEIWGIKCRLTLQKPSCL

[10] = target: CCNA1 (prey, CIC format) (human) (UniProt P78396)
Sequence of CCNA1 (prey, CIC format) (human) (P78396 whole entry): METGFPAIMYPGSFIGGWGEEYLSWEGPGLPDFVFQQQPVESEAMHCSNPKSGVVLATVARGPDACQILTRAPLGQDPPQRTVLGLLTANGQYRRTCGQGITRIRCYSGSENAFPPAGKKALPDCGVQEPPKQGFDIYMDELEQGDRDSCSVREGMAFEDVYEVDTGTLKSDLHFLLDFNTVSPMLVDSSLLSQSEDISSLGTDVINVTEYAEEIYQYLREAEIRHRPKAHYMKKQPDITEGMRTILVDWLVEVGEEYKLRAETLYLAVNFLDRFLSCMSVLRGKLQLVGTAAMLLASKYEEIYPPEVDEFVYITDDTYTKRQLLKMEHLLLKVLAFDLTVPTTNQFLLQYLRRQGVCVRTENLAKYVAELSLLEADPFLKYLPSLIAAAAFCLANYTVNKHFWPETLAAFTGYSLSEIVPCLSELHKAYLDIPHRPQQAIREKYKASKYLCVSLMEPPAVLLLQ

[11] = target: T4, DRAP1 (prey, CIC format) (human) (UniProt Q14919)
T4 sequence (looked up): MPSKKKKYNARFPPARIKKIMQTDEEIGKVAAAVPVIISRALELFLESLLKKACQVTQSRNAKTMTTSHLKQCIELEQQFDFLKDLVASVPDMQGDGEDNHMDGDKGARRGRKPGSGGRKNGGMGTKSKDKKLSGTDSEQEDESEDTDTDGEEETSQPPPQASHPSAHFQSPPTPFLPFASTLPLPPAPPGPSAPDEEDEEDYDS

[12] = target: CASP3 (prey, CIC format) (human) (UniProt P42574)
[13] = target: T5, S100B (prey, CIC format) (human) (UniProt P04271)
T5 sequence (looked up): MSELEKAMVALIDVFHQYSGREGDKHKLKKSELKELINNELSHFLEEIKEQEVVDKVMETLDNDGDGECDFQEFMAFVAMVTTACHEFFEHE

[14] = target: T6, BATF (prey, CIC format) (human) (UniProt Q16520)
T6 sequence (looked up): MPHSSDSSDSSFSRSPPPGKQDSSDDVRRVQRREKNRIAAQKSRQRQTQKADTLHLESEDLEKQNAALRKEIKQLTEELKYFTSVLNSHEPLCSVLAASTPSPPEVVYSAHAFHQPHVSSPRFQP

[15] = target: T7, PEX11B (prey, CIC format) (human) (UniProt O96011)
T7 sequence (looked up): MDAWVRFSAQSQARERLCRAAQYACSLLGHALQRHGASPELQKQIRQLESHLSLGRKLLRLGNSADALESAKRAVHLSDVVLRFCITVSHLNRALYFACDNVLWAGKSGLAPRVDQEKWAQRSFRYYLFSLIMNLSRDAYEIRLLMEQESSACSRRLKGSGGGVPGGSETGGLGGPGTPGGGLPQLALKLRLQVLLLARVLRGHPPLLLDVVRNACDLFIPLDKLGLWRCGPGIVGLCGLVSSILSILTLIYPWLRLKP

[16] = target: PEX16 (prey, CIC format) (human) (UniProt Q9Y5Y5)
[17] = target: BCL2L1 (prey, CIC format) (human) (UniProt Q07817)
Sequence of BCL2L1 (prey, CIC format) (human) (Q07817 whole entry): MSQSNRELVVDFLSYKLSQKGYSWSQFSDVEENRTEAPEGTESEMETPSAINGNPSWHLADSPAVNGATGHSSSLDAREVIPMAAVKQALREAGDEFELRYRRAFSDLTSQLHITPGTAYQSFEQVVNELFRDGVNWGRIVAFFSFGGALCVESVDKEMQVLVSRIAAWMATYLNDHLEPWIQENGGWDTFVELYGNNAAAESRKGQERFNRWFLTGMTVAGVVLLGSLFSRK

[18] = target: GRB2 (prey, CIC format) (human) (UniProt P62993)
[19] = target: T8, LAT (prey, CIC format) (human) (UniProt O43561)
T8 sequence (looked up): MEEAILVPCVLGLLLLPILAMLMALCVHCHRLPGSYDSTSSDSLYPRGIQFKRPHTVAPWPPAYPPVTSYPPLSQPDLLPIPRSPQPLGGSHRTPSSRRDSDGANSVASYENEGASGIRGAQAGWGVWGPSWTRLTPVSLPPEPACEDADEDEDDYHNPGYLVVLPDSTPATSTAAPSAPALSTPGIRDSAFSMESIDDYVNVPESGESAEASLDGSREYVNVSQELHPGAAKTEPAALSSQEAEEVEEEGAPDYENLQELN

[20] = target: PPP3R1 (prey, CIC format) (human) (UniProt P63098)
Sequence of PPP3R1 (prey, CIC format) (human) (P63098 whole entry): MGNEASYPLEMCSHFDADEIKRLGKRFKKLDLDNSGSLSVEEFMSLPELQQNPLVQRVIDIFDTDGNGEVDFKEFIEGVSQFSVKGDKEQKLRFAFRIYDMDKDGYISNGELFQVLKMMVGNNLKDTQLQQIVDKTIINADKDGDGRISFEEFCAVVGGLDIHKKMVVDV

[21] = target: T9, RB1 (prey, CIC format) (human) (UniProt P06400)
T9 sequence (looked up): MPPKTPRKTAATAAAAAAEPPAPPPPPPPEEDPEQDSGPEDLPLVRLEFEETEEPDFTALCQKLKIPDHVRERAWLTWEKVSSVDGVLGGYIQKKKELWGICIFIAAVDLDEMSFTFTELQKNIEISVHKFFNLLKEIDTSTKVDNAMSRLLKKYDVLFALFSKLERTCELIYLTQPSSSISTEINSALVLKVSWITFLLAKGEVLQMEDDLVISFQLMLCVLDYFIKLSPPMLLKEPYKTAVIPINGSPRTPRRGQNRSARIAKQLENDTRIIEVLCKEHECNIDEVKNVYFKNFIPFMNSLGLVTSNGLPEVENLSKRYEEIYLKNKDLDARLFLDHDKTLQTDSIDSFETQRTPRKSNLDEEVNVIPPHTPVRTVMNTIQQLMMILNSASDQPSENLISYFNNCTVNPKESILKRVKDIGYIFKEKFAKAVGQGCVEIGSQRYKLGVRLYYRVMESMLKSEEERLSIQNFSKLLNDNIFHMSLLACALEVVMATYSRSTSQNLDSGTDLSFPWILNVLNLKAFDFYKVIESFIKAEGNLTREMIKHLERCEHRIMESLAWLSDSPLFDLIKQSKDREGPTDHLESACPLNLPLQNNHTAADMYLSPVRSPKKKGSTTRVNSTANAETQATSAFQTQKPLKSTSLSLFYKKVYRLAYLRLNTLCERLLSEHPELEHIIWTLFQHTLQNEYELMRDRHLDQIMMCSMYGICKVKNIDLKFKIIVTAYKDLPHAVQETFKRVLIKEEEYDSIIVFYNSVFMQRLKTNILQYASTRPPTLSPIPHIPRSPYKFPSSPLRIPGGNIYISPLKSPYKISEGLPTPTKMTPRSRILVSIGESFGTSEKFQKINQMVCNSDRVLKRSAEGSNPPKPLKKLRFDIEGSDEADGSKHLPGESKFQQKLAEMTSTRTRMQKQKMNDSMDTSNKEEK

[22] = target: ZBTB16 (prey, CIC format) (human) (UniProt Q05516)
Sequence of ZBTB16 (prey, CIC format) (human) (Q05516 whole entry): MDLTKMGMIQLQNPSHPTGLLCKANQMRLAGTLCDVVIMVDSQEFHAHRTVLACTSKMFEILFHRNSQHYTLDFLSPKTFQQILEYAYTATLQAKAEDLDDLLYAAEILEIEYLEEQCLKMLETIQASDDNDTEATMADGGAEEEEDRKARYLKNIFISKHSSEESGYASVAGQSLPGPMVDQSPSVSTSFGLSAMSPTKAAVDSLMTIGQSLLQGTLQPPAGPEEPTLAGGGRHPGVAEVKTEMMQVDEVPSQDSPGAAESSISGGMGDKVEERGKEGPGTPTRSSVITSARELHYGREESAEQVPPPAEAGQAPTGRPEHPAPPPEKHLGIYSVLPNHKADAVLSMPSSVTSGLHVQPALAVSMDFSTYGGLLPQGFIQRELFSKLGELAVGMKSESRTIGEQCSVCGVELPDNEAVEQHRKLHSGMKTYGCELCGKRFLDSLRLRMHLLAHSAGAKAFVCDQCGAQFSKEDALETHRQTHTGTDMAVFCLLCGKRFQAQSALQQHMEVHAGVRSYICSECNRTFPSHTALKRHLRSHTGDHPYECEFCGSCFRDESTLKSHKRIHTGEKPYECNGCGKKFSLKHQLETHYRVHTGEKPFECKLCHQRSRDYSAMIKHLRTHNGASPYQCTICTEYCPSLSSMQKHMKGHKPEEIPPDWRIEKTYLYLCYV

[23] = target: T10, MAD1L1 (prey, CIC format) (human) (UniProt Q9Y6D9)
T10 sequence (looked up): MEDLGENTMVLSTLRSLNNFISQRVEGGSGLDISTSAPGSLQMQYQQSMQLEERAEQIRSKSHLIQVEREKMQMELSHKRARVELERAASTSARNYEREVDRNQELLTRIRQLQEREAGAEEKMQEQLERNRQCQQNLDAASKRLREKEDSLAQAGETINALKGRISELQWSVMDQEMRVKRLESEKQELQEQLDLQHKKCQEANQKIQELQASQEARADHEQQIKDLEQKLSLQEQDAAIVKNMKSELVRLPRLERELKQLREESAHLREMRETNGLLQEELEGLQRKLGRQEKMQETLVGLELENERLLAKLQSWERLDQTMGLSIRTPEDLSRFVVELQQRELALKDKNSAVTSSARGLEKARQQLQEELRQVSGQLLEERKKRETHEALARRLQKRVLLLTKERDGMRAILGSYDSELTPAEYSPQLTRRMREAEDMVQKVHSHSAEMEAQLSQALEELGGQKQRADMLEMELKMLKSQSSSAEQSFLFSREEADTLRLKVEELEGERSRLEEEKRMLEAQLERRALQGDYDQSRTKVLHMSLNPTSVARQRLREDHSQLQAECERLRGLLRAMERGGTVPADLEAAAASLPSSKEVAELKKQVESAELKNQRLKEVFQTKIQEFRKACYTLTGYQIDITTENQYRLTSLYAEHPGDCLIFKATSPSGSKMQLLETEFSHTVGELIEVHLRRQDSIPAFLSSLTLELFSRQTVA

[24] = target: NFE2L1 (prey, CIC format) (human) (UniProt Q14494)
Sequence of NFE2L1 (prey, CIC format) (human) (Q14494 whole entry): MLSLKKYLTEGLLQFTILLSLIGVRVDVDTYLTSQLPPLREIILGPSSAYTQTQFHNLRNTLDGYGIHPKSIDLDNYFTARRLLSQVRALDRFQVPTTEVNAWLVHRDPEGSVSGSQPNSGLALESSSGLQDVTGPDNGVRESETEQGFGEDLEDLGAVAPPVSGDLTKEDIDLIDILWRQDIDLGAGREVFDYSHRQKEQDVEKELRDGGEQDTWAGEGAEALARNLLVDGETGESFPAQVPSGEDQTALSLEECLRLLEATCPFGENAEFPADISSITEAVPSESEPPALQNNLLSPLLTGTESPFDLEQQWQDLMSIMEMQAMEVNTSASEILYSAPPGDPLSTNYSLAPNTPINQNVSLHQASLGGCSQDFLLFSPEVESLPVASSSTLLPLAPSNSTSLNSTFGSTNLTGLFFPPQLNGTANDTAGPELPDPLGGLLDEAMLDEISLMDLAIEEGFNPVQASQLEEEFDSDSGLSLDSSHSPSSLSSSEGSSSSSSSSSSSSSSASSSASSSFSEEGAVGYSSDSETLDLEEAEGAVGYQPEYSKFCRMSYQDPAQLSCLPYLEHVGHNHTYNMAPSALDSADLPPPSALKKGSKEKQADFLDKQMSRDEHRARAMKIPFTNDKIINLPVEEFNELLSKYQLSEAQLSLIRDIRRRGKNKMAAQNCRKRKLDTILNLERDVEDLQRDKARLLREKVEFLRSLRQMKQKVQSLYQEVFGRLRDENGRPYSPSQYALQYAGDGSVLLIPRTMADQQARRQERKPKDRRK

[25] = target: T11, NTF4 (prey, CIC format) (human) (UniProt P34130)
T11 sequence (looked up): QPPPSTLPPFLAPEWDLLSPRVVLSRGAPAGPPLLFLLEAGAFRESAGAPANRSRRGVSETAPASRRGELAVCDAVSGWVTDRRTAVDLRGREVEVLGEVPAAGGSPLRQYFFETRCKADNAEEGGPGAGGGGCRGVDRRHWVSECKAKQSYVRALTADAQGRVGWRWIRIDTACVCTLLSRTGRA

Sequence of S100A1 (bait, IN format) (P23297 whole entry): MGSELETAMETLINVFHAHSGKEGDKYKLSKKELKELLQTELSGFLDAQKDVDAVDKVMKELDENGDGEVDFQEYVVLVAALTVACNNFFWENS
Sequence of CXCR2 (prey, CIC format) (human) (P25025 whole entry): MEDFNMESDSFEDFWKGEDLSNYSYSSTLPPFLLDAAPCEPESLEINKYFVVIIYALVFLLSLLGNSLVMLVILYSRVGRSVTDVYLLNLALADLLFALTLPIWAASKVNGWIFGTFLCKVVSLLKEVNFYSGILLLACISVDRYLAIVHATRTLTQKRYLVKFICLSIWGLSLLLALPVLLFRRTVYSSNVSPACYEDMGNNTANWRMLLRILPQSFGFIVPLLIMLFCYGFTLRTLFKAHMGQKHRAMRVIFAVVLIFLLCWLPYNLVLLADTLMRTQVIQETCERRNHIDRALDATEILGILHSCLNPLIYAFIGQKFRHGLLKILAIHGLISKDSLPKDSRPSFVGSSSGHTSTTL
Sequence of RCC1 (bait, IN format) (P18754 whole entry): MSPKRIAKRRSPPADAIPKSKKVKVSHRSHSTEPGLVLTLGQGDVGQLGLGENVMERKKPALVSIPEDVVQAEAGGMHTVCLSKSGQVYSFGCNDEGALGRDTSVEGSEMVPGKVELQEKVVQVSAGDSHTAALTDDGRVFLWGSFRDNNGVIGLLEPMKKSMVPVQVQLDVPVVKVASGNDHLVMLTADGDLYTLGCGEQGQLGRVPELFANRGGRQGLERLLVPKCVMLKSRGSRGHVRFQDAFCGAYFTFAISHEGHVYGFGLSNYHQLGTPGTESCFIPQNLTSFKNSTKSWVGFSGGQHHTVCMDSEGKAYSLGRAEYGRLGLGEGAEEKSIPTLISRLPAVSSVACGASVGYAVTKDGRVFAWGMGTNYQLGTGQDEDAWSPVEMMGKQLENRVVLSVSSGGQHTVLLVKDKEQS

Substance: HBA2 (bait, IN format) (from UniProt P69905 1-142)
PLU mean [5]: 0.171

Substance: RCC1 (bait, IN format) (from UniProt P18754 1-421)
PLU mean [6]: 0.125
PLU mean [7]: 0.748

Substance: SKP1A (bait, IN format) (from UniProt P63208 1-163)
PLU mean [8]: 1.26
PLU mean [1]: 0.107
PLU mean [9]: 0.376

Substance: CDKN1B (bait, IN format) (from UniProt P46527 1-198)
PLU mean [10]: 0.686
PLU mean [11]: 0.229

Substance: CBLB (bait, IN format) (from UniProt Q13191 1-982)
PLU mean [17]: 0.272
PLU mean [18]: 2.61

Substance: MAD2L1 (bait, IN format) (from UniProt Q13257 1-205)
PLU mean [23]: 2.52
PLU mean [24]: 0.0819
PLU mean [25]: 0.133

Next, values leading:

PLU mean [1]: 0.178
PLU mean [2]: 0.27
PLU mean [3]: 0.103
PLU mean [4]: 0.101
Substance: CXCL1 (bait, IN format) (from UniProt P09341 35-107) (ligand)

PLU mean [12]: 0.158
PLU mean [13]: 0.822
Substance: S100A1 (bait, IN format) (from UniProt P23297 1-94)

PLU mean [14]: 0.154
PLU mean [15]: 1.18
PLU mean [16]: 1.09
Substance: PEX19 (bait, IN format) (from UniProt P40855 1-299)

PLU mean [19]: 0.222
PLU mean [20]: 0.247
PLU mean [21]: 0.54
PLU mean [22]: 0.492
Substance: HDAC1 (bait, IN format) (from UniProt Q13547 1-482) (enzyme)
